# Results taken from patent US20150265679A1, “METHOD OF REDUCING ADVERSE EFFECTS IN A CANCER PATIENT UNDREGOING TREATMENT WITH A MEK INHIBITOR” (THE UNITED STATES OF AMERICA, as represented by THE …, priority 2013, published 2015).
# B1: IFNγ: interferon-γ or, equivalently, interferon-γ1b (CAS number 82115-62-6), pleiotropic cytokine (protein, UniProt P01579 24-161, looked up)
# Interferon gamma: QDPYVKEAENLKKYFNAGHSDVADNGTLFLGILKNWKEESDRKIMQSQIVSFYFKLFKNFKDDQSIQKSVETIKEDMNVKFFNSNKKKRDDFEKLTNYSVTDLNVQRKAIHELIQVMAELSPAAKTGKRKRSQMLFRG
# How the values were obtained:
# [1] = test system: patients with uveitic cystoid macular edema; test: Phase I open label trial of topical IFNγ in patients with CME secondary to uveitis; assay type: in vivo, human
# Procedure: A phase I open label clinical trial was conducted aimed at investigating the safety and tolerability of topically applied IFN gamma in patients with uveitic cystoid macular edema. To test whether cystoid macular edema (CME), secondary to uveitis, is caused by the disequilibrium of the JAK/STAT and mTor signal transduction pathways in the retinal pigment epithelium (RPE), IFNγ was topically applied in human patients. Five participants with CME secondary to uveitis received a topical ocular instillation of IFNγ in a Phase I, non-randomized, prospective, uncontrolled, dose-escalation, single-center study. The study involved a one-time instillation or series of instillations of IFNγ on the cornea and measurement of a response with optical coherence tomography (OCT) over a three hour period.
# A 25% decrease in macular thickness is observed at a post-instillation as compared to baseline. In the study, the first two participants received one instillation (each instillation contains 10 μg in 0.05 mL solution) on the cornea at time zero, the next two participants received two instillations, 10 minutes apart, for a total dosage of 20 and the final participant received three instillations, 10 minutes apart, for a total of 30 μg. OCT was obtained at −60 minutes, −30 minutes and just before the instillation(s). Repeat OCTs were taken at +30 minutes, +60 minutes and +120 minutes. All participants returned for a one-week safety visit.
# The primary outcome was the change in central macular thickness as measured by OCT in response to interferon IFNγ as compared with baseline. Secondary outcomes included changes in macular volume as measured by OCT, visual acuity, intraocular pressure, intraocular inflammation and ocular surface irritation assessed by fluorescein staining of the cornea and conjunctiva to assess toxicity. For safety measurements, the following were measured: the presence of ocular surface irritation assessed by fluorescein staining of the cornea and conjunctiva to assess toxicity; the number and severity of systemic and ocular toxicities and adverse events; and the proportion of participants with a visual loss of ≧15 ETDRS letters.
# All participants undergo a dilated ophthalmic examination the day of the testing. One eye is chosen as the study eye. The participants receive the evaluation around 12:00 p.m. Participants then have a OCT at −60 minutes, −30 minutes and just before the ocular instillation. The ocular instillation occurs no earlier than 1:00 p.m. Repeat OCT recordings are taken at +30, +60 and +120 minutes after instillation. There is a window of ±15 minutes for each OCT test.
# OCT testing is performed with the Cirrus™ high-definition OCT (Carl Zeiss Meditec, Inc.) scanner using a 512×128 scan pattern where a 6×6-mm area on the retina is scanned with 128 horizontal lines, each consisting of 512 A-scans per line (a total of 65,536 sampled points) within a scan time of 2.4 seconds. The scanner automatically focuses on the macula. Data for macular thickness calculations are collected from an array of A-scans distributed across the macular using the macular thickness analysis algorithm. The three pre-instillation measurements are averaged to calculate the baseline macular thickness measurement. Post-instillation OCT macular thickness calculations (+30, +60 and +120 minutes) is compared to the baseline measurement separately. A 25% reduction in central macular thickness is observed in treated patients.
# Interferon γ-1b is administered as follows: • 1. Topical tetracaine 1% or proparacaine 0.5% drops are applied to the study eye surface one to two minutes prior to instillation. • 2. The participant applies punctal pressure to his/her […] eye. • 3. The investigator holds the participant's study eye open. • 4. A volume of 0.05 mL of IFNγ is instilled on the center of the study eye's cornea from a tuberculin syringe. • 5. […]
# [2] = test system: animal model of retinal-reattachment; conditions: topical addition, cited from earlier work
# hfRPE monolayers [3] = conditions: IFN-γ in basal bath, increased from 7; Li et al., 2009; cited from earlier work
# hfRPE monolayers [4] = test: Transepithelial fluid transport (JV) across hfRPE monolayers, capacitance probe technique; assay type: cell-based, human; conditions: for normal fluid absorption after MEK inhibitor: IFN-γ (15 ng/ml, FIG. 10B) to basal bath after 72 hours 10 μM plus acute 100 μM MEK inhibitor; for rescue of apical MEK inhibitor-induced reduction in fluid absorption: basolateral IFN-γ (10 ng/ml, FIGS. 11A, 11B) after acute apical MEK inhibitor
# Description: Confluent monolayers of hfRPE cultured on transwells were mounted in an electrophysiological chamber and transepithelial water flow (JV) measurements were made with a capacitance probe technique as described previously in Maminishkis 2006; Shi, G., et al., Invest Ophthalmol Vis Sci, 2008, 49, 4620-4630; Edelman, J. L., et al., Invest Ophthalmol Vis Sci, 1991, 32, 3033-3040; Jiang, C., et al., Science, 1993, 262, 424-427; and Maminishkis, A., et al., Invest Ophthalmol Vis Sci, 2002, 43, 3555-3566, each incorporated herein by reference in its entirety. In brief, the RPE is mounted in a water-jacketed ? ssing chamber and oriented vertically with the apical and basolateral membranes separately exposed to Ringer's solution held in bathing reservoirs. Stainless steel probes (Accumeasure System 1000; MT Instruments, Latham, N.Y.) are lowered into the apical and basolateral bathing wells to measure the capacitance of the air gap between the probe and fluid meniscus. Fluid transport rate JV (μl·cm^−2·hr^−1) is determined by monitoring the fluid movement-induced changes in the air gap capacitance at the apical and basolateral baths. The probes on both sides of the tissue are backed off from the surface of the Ringer's solution during a bathing solution change.
# The capacitance probes are moved away from the bathing reservoirs and fresh control Ringer's solution perfused into the chamber. The fluid transport apparatus also allows continuous monitoring of TEP and RT, but for technical reasons (e.g., solution perfusion rates, TEP/RT sampling rates, and electrode stability) the initial changes in TEP and RT can only be compared to those seen in the electrophysiology experiments. Experiments are continued only if JV, TEP, and RT are not appreciably altered by this control-to-control Ringer's solution change. The water jacketed ? ssing chamber is placed in an incubator to maintain steady-state control over temperature, pCO2, and humidity.
# Tissue viability was ascertained by recording transepithelial potential (TEP) and total tissue resistance (RT). It should be noted that the solution composition changes in this chamber were relatively slow (≈1-2 chamber volumes per minute) and the data sampling rate was once per minute, more than two orders of magnitude slower than the sampling rate in the electrophysiology chamber (see below). Therefore it was not possible to record fast changes, in seconds or minutes, in JV, TEP, or RT. After addition of IFNγ to the apical or basal baths, steady-state JV, TEP, and RT were recorded for 20-30 minutes. In control experiments, successive additions of IFNγ were made to test for the repeatability and reversibility of responses.
# Effects of MEK inhibitor on human fetal retinal pigment epithelium (hfRPE) were measured following acute and chronic addition of inhibitor. Experiments were performed using hfRPE monolayers grown on semipermeable inserts with media access to apical and basal sides of the epithelium. In different sets of experiments, MEK inhibitor was added to apical, basal, or both sides of hfRPE mounted in modified ? ssing chambers. In chronic experiments hfRPE were pre-treated with 10 μM MEK inhibitor added to apical and basal baths for 24, 48, or 72 hours. For chronic experiments lasting more than 24 hours, transepithelial resistance (TER) was measured daily. Prior to the transfer of the epithelial monolayer to the ? ssing chamber, the TER of whole insert was compared to the TER measured in the ? ssing chamber. This procedure helps confirm the tissue integrity following the transfer from the cell culture insert to the ? ssing chamber. The TER summary data for chronic experiments contains cumulative recordings of TER obtained from inserts and ? ssing chambers.
# [5] = test system: patients with central serious chorioretinopathy; test: Topical IFN gamma in patients with central serious chorioretinopathy (ongoing trial); assay type: in vivo, human
# Description: Topical IFN gamma was also studied in the treatment of serious retinal detachments in patients with central serious chorioretinopathy. […] This occurred during the second week of a two-week course of therapy.
molecule,measurement,setting,value
B1,ocular surface irritation by slit lamp exam,[1]; 5 patients,no patient developed evidence of ocular surface irritation
same,serious adverse events,[1]; 5 patients,no serious adverse events
same,tolerability of drops,"[1]; 5 patients, 1-week period",well tolerated
same,patients reporting irritation or other new ocular complaints,"[1]; 5 patients, during 1-week period or beyond",none of the 5 patients
same,thickness and volume of macular edema by OCT,[1]; most patients,slight (albeit clinically insignificant) decrease
same,decrease in (central) macular thickness by OCT compared to baseline,"[1]; topical instillation 10-30 μg, post-instillation +30, +60, +120 minutes",25%
same,subretinal fluid,[2]; monitored by high resolution OCT,remove fluid from the subretinal space
same,JAK/STAT pathway,[2],activated
same,steady state Jv after IFN-γ,hfRPE monolayers [3],16 μl·cm−2·hr^−1
same,normal fluid absorption after MEK inhibitor,hfRPE monolayers [4],rescue of fluid transport
same,normal fluid absorption after MEK inhibitor,hfRPE monolayers [4]; listed as IFN-γ,partially restored
same,restoration of MEK inhibitor-decreased fluid absorption,hfRPE monolayers [4]; IFN-γ added to basolateral bath after chronic 10 μM (72 hours) plus acute apical 100 μM MEK inhibitor,almost completely restored
same,increase of JV,hfRPE monolayers [4]; IFNγ 5 ng/ml in the basal bath (FIG. 7),~8.6 μl·cm−2·hr^−1
same,fluid transport across RPE,hfRPE monolayers [4]; IFNγ added to the basal side of hfRPE (FIG. 7),significantly increase
same,cell viability as measured by TEP and RT,hfRPE monolayers [4]; IFNγ treatment of hfRPE,did not affect cell viability
same,rescue of apical MEK inhibitor-induced reduction in fluid absorption,hfRPE monolayers [4],reverse
same,rescue of apical MEK inhibitor-induced reduction in fluid absorption,hfRPE monolayers [4]; listed as IFN-γ,almost completely rescued
same,mean JV after IFNγ,"hfRPE monolayers [4]; increased from 12.9±1.6, mean±SEM, p<0.01",20.5±3.1 μl·cm−2·hr^−1
same,resolution of redness after cessation of drops,"[5]; both affected patients, no persistent ocular changes",within one day
same,clinical outcome in serious retinal detachments,[5]; four patients studied so far,some clinical success
same,painless conjunctival injection with no change in vision,[5]; second week of a two-week course of therapy,two of the four patients
